Assay: Diffusion coefficient (Dcoeff) of FtsA from FRAP
Settings: for Diffusion Coefficient, mean: Fig. 3j; for Dcoeff: Fig. S3i/S3j, summary value
Description: We could also use the data from these bleaching experiments to quantify the membrane-binding kinetics and diffusion of membrane-bound proteins by analysing the change of the fluorescence profile during recovery.
Equimolar concentrations of Cy3- and Cy5-labelled FtsA, supplemented with 20% unlabelled FtsA were used to study FRET and FRAP. Five pre-bleach frames were acquired, followed by acceptor photobleaching of a rectangular ROI with 40% 641 nm laser power and a dwell size of 1 µs/pixel, 75% overlapping lines. The recovery of the signal or the increase in donor intensity were measured with either two frames or one frame per second.
Bleaching the acceptor dye leads to an increase in the donor intensity, which can be used to quantify the Foerster Resonance energy transfer (FRET)[48]. FRET efficiency was quantified with E%=Ipost/Ipost+Ipre⋅100 , where Ipost is the intensity of the […] and Ipre is the […]. […] To extract the contribution of both processes, we adjusted a routine recently published by Gerganova et al.[33]. In short, the code provides the contribution of both modes of recovery by analysing the shape of the fluorescence recovery profile. […] Contribution of diffusion leads to a change of the slope of the outer borders of the bleached region (S4h right). Thus, by measuring the change of the slope of the border recovery, diffusion and simple on/off binding can be distinguished. We developed “FRAPdiff”, a graphical user interface, which uses the original fit routine by David Rutkowski. It can be used directly on.tiff movies with annotated bleach regions as ImageJ ROIs. In addition, we added optional bleach correction, user selectable projection axis (x or y), and optional mirroring of the recovery profiles, if bleaching was not symmetric. The original fit routine for estimating the recovery and diffusion dynamics can be found at https://github.com/davidmrutkowski/1DReflectingDiffusion. FRAPdiff is available at 10.5281/zenodo.6400639[49] under the GPLv3 open-source license.

B1: FtsA R286W (protein)
chain: MIKATDRKLVVGLEIGTAKVAALVGEVLPDGMVNIIGVGSCPSRGMDKGGVNDLESVVKCVQRAIDQAELMADCQISSVYLALSGKHISCQNEIGMVPISEEEVTQEDVENVVHTAKSVRVRDEHRVLHVIPQEYAIDYQEGIKNPVGLSGVRMQAKVHLITCHNDMAKNIVKAVERCGLKVDQLIFAGLASSYSVLTEDERELGVCVVDIGGGTMDIAVYTGGALRHTKVIPYAGNVVTSDIAYAFGTPPSDAEAIKVRHGCALGSIVGKDESVEVPSVGGRPPWSLQRQTLAEVIEPRYTELLNLVNEEILQLQEKLRQQGVKHHLAAGIVLTGGAAQIEGLAACAQRVFHTQVRIGAPLNITGLTDYAQEPYYSTAVGLLHYGKESHLNGEAEVEKRVTASVGSWIKRLNSWLRKEF
modifications: Cy3 or Cy5 at the N-terminus in the labelled form (labelled CLEPTGG peptide conjugated to the 5xGly tag by sortagging); unlabelled protein also used; left off: TwinStrep-SUMO, N-terminal, cleaved | 5x
Diffusion Coefficient (0.4µM FtsA alone, replicate Exp.6): 1.63E-01
Diffusion Coefficient (0.4µM FtsA alone, replicate Exp.7): 2.73E-01
Diffusion Coefficient (0.4µM FtsA alone, replicate Exp.8): 2.14E-01
Diffusion Coefficient (0.4µM FtsA alone, replicate Exp.9): 1.27E-01
Diffusion Coefficient (0.4 µM FtsA, FRAP, p-value […] 10^−6): 0.14 ± 0.08 µm^2/s
Diffusion Coefficient (0.4µM, + FtsN&Z, Mean, n=6 (WT), 9 (R286W)): 0.0079
Diffusion Coefficient (0.4µM, + FtsN&Z, replicate Exp.1): 3.88E-02
Diffusion Coefficient (0.4µM, + FtsN&Z, replicate Exp.2): 8.74E-03
Diffusion Coefficient (0.4µM, + FtsN&Z, replicate Exp.3): 4.31E-03
Diffusion Coefficient (0.4µM, + FtsN&Z, replicate Exp.4): 3.80E-04
Diffusion Coefficient (0.4µM, + FtsN&Z, replicate Exp.5): 1.83E-02
Diffusion Coefficient (0.4µM, + FtsN&Z, replicate Exp.6): 1.51E-04
Diffusion Coefficient (0.4µM, + FtsN&Z, replicate Exp.7): 1.71E-04
Diffusion Coefficient (0.4µM, + FtsN, Mean, n=5 (WT), 6 (R286W)): 0.0457
Diffusion Coefficient (0.4µM, + FtsN, replicate Exp.1): 2.78E-02
Diffusion Coefficient (0.4µM, + FtsN, replicate Exp.2): 2.32E-02
Diffusion Coefficient (0.4µM, + FtsN, replicate Exp.3): 3.10E-02
Diffusion Coefficient (0.4µM, + FtsN, replicate Exp.4): 1.25E-01
Diffusion Coefficient (0.4µM, + FtsN, replicate Exp.5): 3.86E-02
Diffusion Coefficient (0.4µM, + FtsN, replicate Exp.6): 2.82E-02
Diffusion Coefficient (0.4µM, + FtsZ, Mean, n=5 (WT), 8 (R286W)): 0.0305
Diffusion Coefficient (0.4µM, + FtsZ, replicate Exp.1): 9.70E-03
Diffusion Coefficient (0.4µM, + FtsZ, replicate Exp.2): 1.10E-04
Diffusion Coefficient (0.4µM, + FtsZ, replicate Exp.3): 2.57E-02
Diffusion Coefficient (0.4µM, + FtsZ, replicate Exp.4): 8.47E-04
Diffusion Coefficient (0.4µM, + FtsZ, replicate Exp.5): 3.19E-02
Diffusion Coefficient (0.4µM, + FtsZ, replicate Exp.6): 1.28E-01
Diffusion Coefficient (0.4µM, + FtsZ, replicate Exp.7): 3.30E-03
Diffusion Coefficient (0.4µM, + FtsZ, replicate Exp.8): 4.40E-02
Diffusion Coefficient, mean (0.8 µM FtsA + N): 4.39E-02 µm2/s
Diffusion Coefficient, mean (0.8 µM FtsA + Z&N): 7.03E-03 µm2/s
Diffusion Coefficient, mean (0.8 µM FtsA + Z): 1.59E-02 µm2/s
Diffusion Coefficient (0.8µM FtsA alone, Mean, n=19 (WT), 8 (R286W)): 0.1136
Diffusion Coefficient, mean (0.8 µM FtsA alone): 1.14E-01 µm2/s
Diffusion Coefficient (0.8µM FtsA alone, replicate Exp.1): 2.82E-01
Diffusion Coefficient (0.8µM FtsA alone, replicate Exp.2): 8.82E-02
Diffusion Coefficient (0.8µM FtsA alone, replicate Exp.3): 6.72E-02
Diffusion Coefficient (0.8µM FtsA alone, replicate Exp.4): 7.30E-02
Diffusion Coefficient (0.8µM FtsA alone, replicate Exp.5): 1.01E-01
Diffusion Coefficient (0.8µM FtsA alone, replicate Exp.6): 8.47E-02
Diffusion Coefficient (0.8µM FtsA alone, replicate Exp.7): 1.13E-01
Diffusion Coefficient (0.8µM FtsA alone, replicate Exp.8): 9.93E-02
Diffusion Coefficient (0.8µM, + FtsN&Z, Mean, n=5 (WT), 4 (R286W)): 0.0070
Diffusion Coefficient (0.8µM, + FtsN&Z, replicate Exp.1): 2.90E-03
Diffusion Coefficient (0.8µM, + FtsN&Z, replicate Exp.2): 7.64E-03
Diffusion Coefficient (0.8µM, + FtsN&Z, replicate Exp.3): 1.38E-02
Diffusion Coefficient (0.8µM, + FtsN&Z, replicate Exp.4): 3.70E-03
Diffusion Coefficient (0.8µM, + FtsN, Mean, n=4 (WT), 3 (R286W)): 0.0439
Diffusion Coefficient (0.8µM, + FtsN, replicate Exp.1): 1.96E-02
Diffusion Coefficient (0.8µM, + FtsN, replicate Exp.2): 4.05E-02
Diffusion Coefficient (0.8µM, + FtsN, replicate Exp.3): 7.15E-02
Diffusion Coefficient (0.8µM, + FtsZ, Mean, n=3 (WT), 8 (R286W)): 0.0159
Diffusion Coefficient (0.8µM, + FtsZ, replicate Exp.1): 3.69E-02
Diffusion Coefficient (0.8µM, + FtsZ, replicate Exp.2): 8.95E-03
Diffusion Coefficient (0.8µM, + FtsZ, replicate Exp.3): 1.47E-02
Diffusion Coefficient (0.8µM, + FtsZ, replicate Exp.4): 3.84E-03
Diffusion Coefficient (0.8µM, + FtsZ, replicate Exp.5): 3.32E-03
Diffusion Coefficient (0.8µM, + FtsZ, replicate Exp.6): 1.93E-02
Diffusion Coefficient (0.8µM, + FtsZ, replicate Exp.7): 8.19E-14
Diffusion Coefficient (0.8µM, + FtsZ, replicate Exp.8): 4.01E-02
Dcoeff (0.10 µM FtsA): 5.20E-02 µm2/s
Dcoeff (0.20 µM FtsA): 6.48E-02 µm2/s
Dcoeff (0.40 µM FtsA): 1.35E-01 µm2/s
Dcoeff (0.80 µM FtsA): 1.14E-01 µm2/s

— paper PMC9098913, “In vitro reconstitution of Escherichia coli divisome activation” (Nature Communications, 2022)
